Experiments:
[1] = biological target: T1, CFP-TALK2 (human, UniProt Q96T54-3 1-332); test: FRET or BRET; acceptor photobleaching FRET (CFP donor, YFP acceptor) in HEK293 cells, confocal microscope; cDNA ratio CFP:YFP 1:1; E_FRET = percent increase in CFP emission after YFP photobleaching; conditions: partners not purified
T1 construct: human TALK2 (KCNK17), full-length cDNA NM_031460.3; The end of the tag is read from the order in the construct's name; also called KCNK17; source: HEK293, transiently transfected, in living cells; not shown: CFP, N-terminal, kept
T1 sequence (looked up): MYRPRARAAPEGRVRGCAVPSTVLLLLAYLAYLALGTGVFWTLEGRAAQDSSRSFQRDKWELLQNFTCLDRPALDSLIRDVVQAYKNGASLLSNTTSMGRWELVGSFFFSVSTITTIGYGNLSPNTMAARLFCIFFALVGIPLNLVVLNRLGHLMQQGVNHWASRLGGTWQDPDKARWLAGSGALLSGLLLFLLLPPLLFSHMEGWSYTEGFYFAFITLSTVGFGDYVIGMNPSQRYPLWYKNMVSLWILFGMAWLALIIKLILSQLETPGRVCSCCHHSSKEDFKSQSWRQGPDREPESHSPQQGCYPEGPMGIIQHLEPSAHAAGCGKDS

[2] = biological target: T2, CFP-TASK1 (human, UniProt O14649 1-394); test: as above; conditions: partners not purified
T2 construct: human TASK1 (KCNK3), full-length cDNA NM_002246.2; The end of the tag is read from the order in the construct's name; also called KCNK3; source: HEK293, transiently transfected, in living cells; not shown: CFP, N-terminal, kept

B1: TALK2-YFP (natural protein, human, UniProt Q96T54-3 1-332, looked up)
chain: MYRPRARAAPEGRVRGCAVPSTVLLLLAYLAYLALGTGVFWTLEGRAAQDSSRSFQRDKWELLQNFTCLDRPALDSLIRDVVQAYKNGASLLSNTTSMGRWELVGSFFFSVSTITTIGYGNLSPNTMAARLFCIFFALVGIPLNLVVLNRLGHLMQQGVNHWASRLGGTWQDPDKARWLAGSGALLSGLLLFLLLPPLLFSHMEGWSYTEGFYFAFITLSTVGFGDYVIGMNPSQRYPLWYKNMVSLWILFGMAWLALIIKLILSQLETPGRVCSCCHHSSKEDFKSQSWRQGPDREPESHSPQQGCYPEGPMGIIQHLEPSAHAAGCGKDS
notes: human TALK2 (KCNK17), full-length cDNA NM_031460.3; The end of the tag is read from the order in the construct's name; also called KCNK17; source: HEK293, transiently transfected, in living cells; not shown: YFP, C-terminal, kept
For B1, the E_FRET [1] was 8.6%.

B2: TASK1-YFP (natural protein, human, UniProt O14649 1-394, looked up)
chain: MKRQNVRTLALIVCTFTYLLVGAAVFDALESEPELIERQRLELRQQELRARYNLSQGGYEELERVVLRLKPHKAGVQWRFAGSFYFAITVITTIGYGHAAPSTDGGKVFCMFYALLGIPLTLVMFQSLGERINTLVRYLLHRAKKGLGMRRADVSMANMVLIGFFSCISTLCIGAAAFSHYEHWTFFQAYYYCFITLTTIGFGDYVALQKDQALQTQPQYVAFSFVYILTGLTVIGAFLNLVVLRFMTMNAEDEKRDAEHRALLTRNGQAGGGGGGGSAHTTDTASSTAAAGGGGFRNVYAEVLHFQSMCSCLWYKSREKLQYSIPMIIPRDLSTSDTCVEQSHSSPGGGGRYSDTPSRRCLCSGAPRSAISSVSTGLHSLSTFRGLMKRRSSV
notes: human TASK1 (KCNK3), full-length cDNA NM_002246.2; The end of the tag is read from the order in the construct's name; also called KCNK3; source: HEK293, transiently transfected, in living cells; not shown: YFP, C-terminal, kept
B2 gave an E_FRET [1] of 7.8% and an E_FRET [2] of 9.8%.
